The term Kd denotes a measure of binding affinity in units of concentration. Low readings indicate tighter binding, high ones weaker binding. What is called koff is a measure of how fast the partners let go of each other. Read a high koff as fast dissociation.

Consider 5 molecules from US20090238823A1 (published 2009).

Assay [1] has as its target T1, Cynomolgus TSLP (mammalian produced) (cynomolgus).
T1 construct: The Biacore construct is not specified beyond mammalian production; also called Cyno TSLP; cynomolgus TSLPwtpHF
T1 chain: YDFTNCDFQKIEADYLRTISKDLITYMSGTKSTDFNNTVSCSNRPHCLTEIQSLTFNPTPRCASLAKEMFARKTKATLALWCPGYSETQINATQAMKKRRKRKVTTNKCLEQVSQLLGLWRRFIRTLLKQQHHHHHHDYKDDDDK
As to the kind of experiment: SPR (Biacore 3000), antibody captured by anti-human Fc gamma, TSLP in solution, 25 C. For orientation: SPR reads the build-up and loss of mass on a sensor chip optically.
Procedure: (§1) The surface plasmon resonance experiments described in this patent application were conducted at 25° C. using a Biacore 3000 instrument (Biacore International AB, Uppsala, Sweden) equipped with a CM4 sensor chip. Anti-Fcγ specific capture antibodies were covalently immobilized to two flow cells on the CM4 chip using standard amine-coupling chemistry with HBS-EP as the running buffer. Briefly, each flow cell was activated with a 1:1 (v/v) mixture of 0.1 M NHS and 0.4 M EDC. AffiniPure Goat Anti-Human IgG, Fcγ Fragment Specific antibody (Jackson ImmunoResearch Inc. West Grove, Pa.) at 30 ug/ml in 10 mM sodium acetate, pH 5.0 was immobilized with a target level of 3,000 RUs on two flow cells. Residual reactive surfaces were deactivated with an injection of 1 M ethanolamine. The running buffer was then switched to HBS-EP+0.1 mg/ml BSA for all remaining steps.
(§2) The following antibodies were tested. […] No antibody was captured on the control flow cell surface. Human, cyno, or murine TSLP at various concentrations, along with buffer blanks were then flown over the two flow cells. The concentration ranges for human and cyno TSLP were from 0.44-100 nM while the concentration range for murine TSLP was from 8.2-6000 nM. A flow rate of 50 ul/min was used and a 2 minute association phase followed by a 10-30 minute dissociation phase. After each cycle the surfaces were regenerated with a 30 second injection of 10 mM glycine pH 1.5. Fresh antibody was then captured on the test flow cell to prepare for the next cycle.

Assay [2] has as its target T2, Human TSLP (mammalian produced) (human, UniProt Q969D9 29-159).
T2 construct: also called Hu TSLP; huTSLPwtpHF
The assay is described as above.
Procedure: as §1, §2

Assay [3] concerns the target T3, Murine TSLP (murine, UniProt Q9JIE6 20-140).
T3 construct: also called Mu TSLP
T3 sequence (looked up): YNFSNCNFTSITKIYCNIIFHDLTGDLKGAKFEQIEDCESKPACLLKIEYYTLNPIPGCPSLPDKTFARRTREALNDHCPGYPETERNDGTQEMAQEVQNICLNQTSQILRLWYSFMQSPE
Kind of assay: SPR (Biacore 3000), antibody captured by anti-human Fc gamma, TSLP in solution.

Assay [4] concerns the target T3, Murine TSLP. As to the kind of experiment: SPR (Biacore 3000), antibody captured by anti-human Fc gamma, TSLP in solution, 25 C.
Procedure: as §1, §2

B1: A2 IgG1 (antibody, V domains shown)
VH: EVQLVESGGVVVQPGGSLRLSCAASGFTFDDFTMHWVRQAPGKGLEWVSLISWDGGSTYYADSVKGRFTISRDNSKNSLYMQMNSLRTEDSALYYCARGPYYYFYGMDVWGQGTTVTVSS
VL: SSELTQDPAVSVALGQTVRITCQGDSLRTYYASWYQQKPGQAPILVISDKNNRPSGIPDRFSGSSSGNTASLTITGAQAEDEADYYCNSRDSSDNHLVVFGGGTKLTVL
notes: also called L2H2
Consider B1, for which the Kd was determined as 0.0468 nM in assay [1] and 0.203 nM in assay [2]. In addition, the koff in assay [1] is 0.000104 s⁻¹; in assay [2], 0.000349 s⁻¹.

B2: A2 IgG2 (antibody, V domains shown)
VH: EVQLVESGGVVVQPGGSLRLSCAASGFTFDDFTMHWVRQAPGKGLEWVSLISWDGGSTYYADSVKGRFTISRDNSKNSLYMQMNSLRTEDSALYYCARGPYYYFYGMDVWGQGTTVTVSS
VL: SSELTQDPAVSVALGQTVRITCQGDSLRTYYASWYQQKPGQAPILVISDKNNRPSGIPDRFSGSSSGNTASLTITGAQAEDEADYYCNSRDSSDNHLVVFGGGTKLTVL
notes: also called L2H2
Take B2: the binding result with Murine TSLP [3] is given as “no binding (tested: murine TSLP 8.2-6000 nM)”. Besides, in assay [1], binding was put at a Kd of 0.0376 nM and the koff is 9.42e-05 s⁻¹. In assay [2], this molecule came in with a Kd of 0.157 nM and a koff of 0.000285 s⁻¹.

B3: A5 IgG2 (antibody, V domains shown)
VH: QMQLVESGGGVVQPGRSLRLSCAASGFTFRTYGMHWVRQAPGKGLEWVAVIWYDGSNKHYADSVKGRFTITRDNSKNTLNLQMNSLRAEDTAVYYCARAPQWELVHEAFDIWGQGTMVTVSS
VL: SYVLTQPPSVSVAPGQTARITCGGNNLGSKSVHWYQQKPGQAPVLVVYDDSDRPSWIPERFSGSNSGNTATLTISRGEAGDEADYYCQVWDSSSDHVVFGGGTKLTVL
notes: also called L5H5
As to B3, the values for the Kd (in assay [1]; with Murine TSLP [4]) were 0.0512 nM and 377 nM, respectively.

B4: A3 IgG4 (antibody, V domains shown)
VH: QVQLVQSGAEVKKPGASVKVSCKASGYTFTDYYMYWVRQAPGQGPEWMGWINPNSGGTNYVQKFQGRVTMTRDTSISTAYMELSRMRSDDTAVYYCARDGGSSGWPLFAYWGLGTLVTVSS
VL: QSVLTQPPSVSGAPGQRVTISCTGSSSNIGAGFDVHWYQQLPGTAPKLLIYDNNNRPSGVPDRFSGSKSGTSASLAITGLQAEDEADYYCQSYDSNLSGSIVVFGGGTKLTVL
notes: also called L3H3
Turning to B4, in assay [2], the affinity, expressed as Kd, was 0.17 nM and the koff worked out at 0.00027 s⁻¹.

B5: A4 IgG4 (antibody, V domains shown)
VH: QVQLVQSGAEVKKPGASVKVSCKASGYIFTGDYMHWVRQAPGQGLEWMGWINPNSGGTNHARKFQGRVTMTRDTSISTAYMELSRLRSDDTAVYYCVRDRGTSGWPLFDYWGQGTLVTVSS
VL: QSVLTQPPSVSGAPGQRVTISCTGSSSNIGAGFDVHWYQLLPGTAPKLLIFDNNNRPSGVPDRFSGSKSGTSASLAITGLQAEDEADYYCQSYDSNLSGSIVVFGGGTKLTVL
notes: also called L4H4
In the case of B5, in assay [2], binding was put at a Kd of 0.34 nM and the koff stood at 0.00033 s⁻¹.
